{"source": "paper PMC9241723", "biological_target": "T1, MaNCP1-N (N-terminal C2H2 zinc finger cluster of MaNCP1) (Metarhizium acridum (CQMa102)) (UniProt E9E378)", "T1 sequence": "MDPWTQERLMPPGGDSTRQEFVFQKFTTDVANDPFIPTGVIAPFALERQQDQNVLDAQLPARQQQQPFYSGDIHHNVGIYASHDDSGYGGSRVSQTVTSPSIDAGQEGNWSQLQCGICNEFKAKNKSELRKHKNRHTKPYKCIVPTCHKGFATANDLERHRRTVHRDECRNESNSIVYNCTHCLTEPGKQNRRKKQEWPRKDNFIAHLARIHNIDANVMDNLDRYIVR", "assay": "EMSA", "settings": "Chemiluminescent EMSA kit (Beyotime), biotin-labeled probe; buffer, salt, pH and temperature not stated", "data": [{"sequence": "AAAGATCAATAGGAGCTCAGACGACGAGATCGGATGGTGGGGTTCCGGGCAGGCGCAGGCGCGGCGGAAGTCGGCTAGCAGGAGCAACCCAATTGATAAGAGCTCAAGTG (double strand) [MaNmrA promoter probe]", "values": [{"measurement": "binding", "result": "binds"}]}]}
